Assay results taken from IntAct's records for PubMed 25107275.

Biological target: snx9_human SNX9 (UniProt Q9Y5X1)
Sequence (Q9Y5X1 whole entry): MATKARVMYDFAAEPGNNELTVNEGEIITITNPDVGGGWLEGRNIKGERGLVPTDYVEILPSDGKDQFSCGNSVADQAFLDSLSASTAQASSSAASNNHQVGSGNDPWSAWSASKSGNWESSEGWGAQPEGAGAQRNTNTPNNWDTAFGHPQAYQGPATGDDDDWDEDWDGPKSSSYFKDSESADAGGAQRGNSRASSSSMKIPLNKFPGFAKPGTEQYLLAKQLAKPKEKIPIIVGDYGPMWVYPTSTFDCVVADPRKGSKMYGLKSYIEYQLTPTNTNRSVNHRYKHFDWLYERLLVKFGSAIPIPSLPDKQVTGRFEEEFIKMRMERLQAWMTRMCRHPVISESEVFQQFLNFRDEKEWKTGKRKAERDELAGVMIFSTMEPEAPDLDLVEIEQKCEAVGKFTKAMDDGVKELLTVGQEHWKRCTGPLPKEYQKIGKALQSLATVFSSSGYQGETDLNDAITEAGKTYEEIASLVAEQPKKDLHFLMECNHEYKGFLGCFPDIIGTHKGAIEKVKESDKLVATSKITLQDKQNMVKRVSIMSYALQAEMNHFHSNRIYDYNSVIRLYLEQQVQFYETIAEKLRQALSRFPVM

Sequence of Inositol polyphosphate 5-phosphatase OCRL (Homo sapiens), Q01968 P177A;P178A;P181A (Q01968 whole entry P177A/P178A/P181A): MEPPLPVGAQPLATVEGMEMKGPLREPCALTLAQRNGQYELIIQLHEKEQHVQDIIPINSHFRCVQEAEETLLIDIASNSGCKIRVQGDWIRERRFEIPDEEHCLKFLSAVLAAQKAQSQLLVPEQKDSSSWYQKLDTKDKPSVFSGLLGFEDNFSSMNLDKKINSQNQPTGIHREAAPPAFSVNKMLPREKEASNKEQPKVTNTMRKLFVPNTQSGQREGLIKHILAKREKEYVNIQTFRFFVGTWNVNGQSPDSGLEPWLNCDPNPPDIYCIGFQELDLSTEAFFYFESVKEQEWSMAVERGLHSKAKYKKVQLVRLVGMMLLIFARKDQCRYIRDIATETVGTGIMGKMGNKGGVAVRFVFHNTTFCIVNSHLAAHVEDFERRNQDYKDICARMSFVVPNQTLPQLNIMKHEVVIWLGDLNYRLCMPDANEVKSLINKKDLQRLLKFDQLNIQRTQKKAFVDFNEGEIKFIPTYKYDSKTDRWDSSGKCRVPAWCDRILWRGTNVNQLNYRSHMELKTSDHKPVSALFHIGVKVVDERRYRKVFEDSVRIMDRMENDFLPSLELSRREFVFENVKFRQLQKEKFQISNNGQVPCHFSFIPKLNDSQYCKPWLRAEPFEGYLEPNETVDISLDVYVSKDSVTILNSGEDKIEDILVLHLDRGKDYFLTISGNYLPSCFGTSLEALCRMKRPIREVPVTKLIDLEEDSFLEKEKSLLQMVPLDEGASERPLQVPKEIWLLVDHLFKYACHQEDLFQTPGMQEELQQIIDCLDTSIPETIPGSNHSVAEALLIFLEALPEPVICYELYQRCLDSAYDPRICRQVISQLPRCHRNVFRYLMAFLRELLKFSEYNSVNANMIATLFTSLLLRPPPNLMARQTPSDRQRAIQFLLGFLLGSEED

effect of a mutation on the interaction: disrupting interaction
Substance: Inositol polyphosphate 5-phosphatase OCRL (Homo sapiens), Q01968 P177A;P178A;P181A
